Holding throughout (conditions): both partners purified
The target of test [1] is T1, MPER-TM2 (gp41 residues 630-711, containing the complete TM region) (HIV-1 group M; Env Q74599 (HXB2-like), …, UniProt Q74599).
T1 construct: not shown: His-tag, N-terminal, cleaved; flag-tag, N-terminal, cleaved
The test can be described thus: BLI; Octet Red; biotinylated IgG on Streptavidin biosensors; MPER-TM2 in 25 mM HEPES pH 7.5, 150 mM NaCl, 0.1 % Fos-Choline-12, 25°C; global fit 1:1 model or steady state analysis.

Test [2] concerns the target T1, MPER-TM2 (gp41 residues 630-711, …). The test can be described thus: SPR.
The target in test [3] is T2, MPER-TM1 peptide (gp41 residues 671-689) (HIV-1, strain  (6SNC maps to …)).
T2 construct: also called gp41 MPER-TM1; source: synthetic peptide (Smart Bioscience, Grenoble)
The test can be described thus: SPR. (In general: In SPR one partner is held on a chip, and binding of the other changes the refractive index at the surface.)

Values joined by “and” are separate entries in the source; they are usually repeats but may differ in a detail not shown here. Identical values can stand only once.

B1: LN01 sH/gL (antibody, V domains shown)
VH: QVQLEESGPGLVQPWGTLSLTCRVSGDSVSNDNYYWAWIRQTPGRELQVIGTIYYSGTTYYNPSLRNRVTISLDKSVNVVSLRLGSVSAADTAQYYCVRMPSHGFWSTSFSYWYFDLWGRGHFVAVSW
VL: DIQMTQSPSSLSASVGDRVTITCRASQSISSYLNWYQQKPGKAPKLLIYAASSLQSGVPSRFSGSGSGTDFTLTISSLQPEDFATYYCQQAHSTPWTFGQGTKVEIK
notes: IgG; source: Expi293F, transient transfection (PEI), purified by protein A chromatography
In general, Kd refers to the equilibrium constant for the complex coming apart. Consider B1, for which the Kd in test [1] worked out at 453 ± 82 nM.

B2: LN01 recombinant IgG1 monoclonal antibody (antibody, V domains shown)
VH: QVQLEESGPGLVQPWGTLSLTCRVSGDSVSNDNYYWAWIRQTPGRELQVIGTIYYSGTTYYNPSLRNRVTISLDKSVNVVSLRLGSVSAADTAQYYCVRMPSHGFWSTSFSYWYFDLWGRGHFVAVSW
VL: DIQMTQSPSSLSASVGDKVTITCRASQSVTKYLNWYQFKTGQAPRILIYGTYTLLSGVSPRFSGAGSGSLYTLTITNIQPEDFATYYCQQAHSTPWTFGQGTHVAAN
notes: also called LN01 IgG1; IgG1 LN01 antibody; source: Expi293F, transient transfection (PEI), purified by protein A chromatography
Consider B2, for which the Kd in test [2] is 13 nM; in test [3], 161 nM and 170 nM; in test [1], 2.3 ± 0.01 nM.

B3: LN01 sH/gL-FR (antibody, V domains shown)
VH: QVQLEESGPGLVQPWGTLSLTCRVSGDSVSNDNYYWAWIRQTPGRELQVIGTIYYSGTTYYNPSLRNRVTISLDKSVNVVSLRLGSVSAADTAQYYCVRMPSHGFWSTSFSYWYFDLWGRGHFVAVSW
VL: DIQMTQSPSSLSASVGDRVTITCRASQSVTKYLNWYQQKPGKAPKLLIYGTYSLQSGVPSRFSGSGSGTDFTLTISSLQPEDFATYYCQQAHSTPWTFGQGTKVEIK
notes: as for B1
In the case of B3, in test [1], the Kd was 7 ± 0.03 nM.

B4: LN01 gH/UCA (antibody, V domains shown)
VH: QLQLQESGPGLVKPSETLSLTCTVSGGSISSSSYYWGWIRQPPGKGLEWIGSIYYSGSTYYNPSLKSRVTISVDTSKNQFSLKLSSVTAADTAVYYCVRMPSHGFWSTSFSYWYFDLWGRGTLVTVSS
VL: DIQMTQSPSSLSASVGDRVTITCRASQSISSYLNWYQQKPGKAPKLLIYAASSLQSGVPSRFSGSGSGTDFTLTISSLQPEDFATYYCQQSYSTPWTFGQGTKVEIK
notes: as for B1
B4: the Kd in test [1] was 4700 ± 1700 nM.

B5: LN01 gH/gL (antibody, V domains shown)
VH: QLQLQESGPGLVKPSETLSLTCTVSGGSISSSSYYWGWIRQPPGKGLEWIGSIYYSGSTYYNPSLKSRVTISVDTSKNQFSLKLSSVTAADTAVYYCVRMPSHGFWSTSFSYWYFDLWGRGTLVTVSS
VL: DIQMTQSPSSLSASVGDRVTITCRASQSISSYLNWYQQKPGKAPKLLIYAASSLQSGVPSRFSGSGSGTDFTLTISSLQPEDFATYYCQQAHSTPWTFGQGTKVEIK
notes: as for B1
As for B5, the Kd in test [1] worked out at 1400 nM.

B6: LN01 gH/sL (antibody, V domains shown)
VH: QLQLQESGPGLVKPSETLSLTCTVSGGSISSSSYYWGWIRQPPGKGLEWIGSIYYSGSTYYNPSLKSRVTISVDTSKNQFSLKLSSVTAADTAVYYCVRMPSHGFWSTSFSYWYFDLWGRGTLVTVSS
VL: DIQMTQSPSSLSASVGDKVTITCRASQSVTKYLNWYQFKTGQAPRILIYGTYTLLSGVSPRFSGAGSGSLYTLTITNIQPEDFATYYCQQAHSTPWTFGQGTHVAAN
notes: as for B1
B6: in test [1], the Kd is 6.2 ± 0.02 nM.

B7: LN01 UCA/UCA (antibody, V domains shown)
VH: QLQLQESGPGLVKPSETLSLTCTVSGGSISSSSYYWGWIRQPPGKGLEWIGSIYYSGSTYYNPSLKSRVTISVDTSKNQFSLKLSSVTAADTAVYYCVRMPSHGFWSGYFSYWYFDLWGRGTLVTVSS
VL: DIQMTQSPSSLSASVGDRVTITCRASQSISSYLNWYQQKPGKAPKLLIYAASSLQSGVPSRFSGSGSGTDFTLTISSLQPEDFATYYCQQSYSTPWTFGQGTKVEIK
notes: also called the UCA version of LN01; source: Expi293F, transient transfection (PEI), purified by protein A chromatography
Take B7: the binding result in test [1] is “no binding”.

B8: LN01 UCA/gL (antibody, V domains shown)
VH: QLQLQESGPGLVKPSETLSLTCTVSGGSISSSSYYWGWIRQPPGKGLEWIGSIYYSGSTYYNPSLKSRVTISVDTSKNQFSLKLSSVTAADTAVYYCVRMPSHGFWSGYFSYWYFDLWGRGTLVTVSS
VL: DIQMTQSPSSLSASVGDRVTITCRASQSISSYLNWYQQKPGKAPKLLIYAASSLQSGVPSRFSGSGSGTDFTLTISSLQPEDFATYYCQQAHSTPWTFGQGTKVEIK
notes: as for B1
Regarding B8, in test [1], the binding result was “no binding”.

B9: LN01 UCA/sL (antibody, V domains shown)
VH: QLQLQESGPGLVKPSETLSLTCTVSGGSISSSSYYWGWIRQPPGKGLEWIGSIYYSGSTYYNPSLKSRVTISVDTSKNQFSLKLSSVTAADTAVYYCVRMPSHGFWSGYFSYWYFDLWGRGTLVTVSS
VL: DIQMTQSPSSLSASVGDKVTITCRASQSVTKYLNWYQFKTGQAPRILIYGTYTLLSGVSPRFSGAGSGSLYTLTITNIQPEDFATYYCQQAHSTPWTFGQGTHVAAN
notes: as for B1
B9: in test [1], the binding result was “no binding”.
